According to patent US20220332829A1 (NANJING SANHOME PHARMACEUTICAL, published 2022):

Assays:
[1] = target: T1, B7-H3 on surface of tumor cell (786-0, MDA-MB-231, Raji-B7-H3 cells) (human, UniProt Q5ZPR3 29-534); experiment: FACS on 786-0 cells
T1 construct: whole, on cells; The making of Raji-B7-H3 cells is not described; also called B7-H3 on the surface of tumor cells; human B7-H3
T1 sequence (looked up): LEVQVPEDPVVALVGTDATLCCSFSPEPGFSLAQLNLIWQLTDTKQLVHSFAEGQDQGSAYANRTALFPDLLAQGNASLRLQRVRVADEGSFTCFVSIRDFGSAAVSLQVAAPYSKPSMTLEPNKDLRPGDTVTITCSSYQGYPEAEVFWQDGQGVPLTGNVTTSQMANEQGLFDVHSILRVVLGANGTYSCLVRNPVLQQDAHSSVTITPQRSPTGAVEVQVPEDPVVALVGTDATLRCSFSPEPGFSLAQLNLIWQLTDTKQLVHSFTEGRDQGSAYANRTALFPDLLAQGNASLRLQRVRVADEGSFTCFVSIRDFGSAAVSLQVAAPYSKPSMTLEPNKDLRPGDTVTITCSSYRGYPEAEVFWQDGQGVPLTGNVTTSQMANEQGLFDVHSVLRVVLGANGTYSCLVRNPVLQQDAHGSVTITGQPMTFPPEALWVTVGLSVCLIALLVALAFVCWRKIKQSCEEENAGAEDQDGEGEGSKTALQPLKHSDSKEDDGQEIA
Protocol: (§1) The binding activity of antibodies to B7-H3 on the surface of tumor cells was analyzed by FACS. Mean fluorescence intensity (MFI) and EC₅₀ detected by FACS indicate the binding activity of the antibody to cells. After 786-0 and MDA-MB-231 cells were digested, they were resuspended in 2% FBS-PBS solution and counted. After raji-B7-H3 cells were collected, they were resuspended in 2% FBS-PBS and counted. The above cells were plated in a cell plate with 1×10⁵ cells per well. The anti-B7-H3 antibody of the present disclosure was used as the primary antibody and added to cell plates in gradient dilution starting from 20 μg/mL with a total of 8 concentrations: 20,000 ng/mL, […], 2,000 ng/mL, 400 ng/mL, 80 ng/mL, 16 ng/mL, 3.2 ng/mL, and 0.64 ng/mL respectively. The plates were incubated at 4° C. for 1 h with hBRCA84D as the positive control antibody. PE-Anti-Human IgG (Biolegend, Cat. No. 409303, 1.25 μl/well) was used as the secondary antibody, washed, and detected for the fluorescence intensity generated by the binding of the antibody to the cell surface by a flow cytometer.

[2] = target: T1, B7-H3 on surface of tumor cell (786-0, …); experiment: FACS on MDA-MB-231 cells
Protocol: as §1

[3] = target: T1, B7-H3 on surface of tumor cell (786-0, …); experiment: FACS on Raji-B7-H3 cells
Protocol: as §1

[4] = target: T2, human 4Ig-B7-H3-His protein (human, UniProt Q5ZPR3 29-466); experiment: Biacore X100 SPR, 4Ig-B7-H3-His coupled to CM5 chip, antibody injected
T2 construct: also called human B7-H3 protein
T2 sequence: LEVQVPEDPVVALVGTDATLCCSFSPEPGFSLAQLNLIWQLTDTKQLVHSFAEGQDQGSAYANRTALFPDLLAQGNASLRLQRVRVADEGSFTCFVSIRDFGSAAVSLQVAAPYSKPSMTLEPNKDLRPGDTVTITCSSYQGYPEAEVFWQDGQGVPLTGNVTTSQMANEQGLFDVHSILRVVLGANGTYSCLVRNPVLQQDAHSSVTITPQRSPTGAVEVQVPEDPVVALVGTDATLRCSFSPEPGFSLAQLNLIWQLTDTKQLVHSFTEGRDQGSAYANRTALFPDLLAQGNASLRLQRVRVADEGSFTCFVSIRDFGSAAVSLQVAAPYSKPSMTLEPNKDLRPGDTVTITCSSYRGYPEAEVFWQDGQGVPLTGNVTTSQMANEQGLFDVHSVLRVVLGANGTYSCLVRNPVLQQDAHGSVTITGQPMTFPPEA
Source text: The humanized anti-B7-H3 antibodies prepared in Example 4 were subjected to affinity assay by Biacore. The antigen 4Ig-B7-H3-His was first coupled to the surface of a CM5 chip (GE, Cat. No. BR100012), and the active groups of the uncoupled protein were blocked with ethanolamine. After the baseline was stable, the hu39-01, hu65-13, and hBRCA84D antibodies were respectively diluted in equal proportions. The diluted antibodies of each concentration were placed on the sample injection tray of the instrument in sequence, and the program was set to inject samples respectively.

[5] = target: T2, human 4Ig-B7-H3-His protein; experiment: ELISA, plate coated with human 4Ig-B7-H3-His, detection with anti-human IgG HRP, OD450
Protocol: (§2) The binding activity of antibodies was analyzed by ELISA. 96-well ELISA plates were coated with human 4Ig-B7-H3-His protein or 2Ig-B7-H3-His protein (1 μg/well, prepared in Examples 1 and 2) and incubated overnight at 4° C. The plates were washed 3 times with 1×PBST and then blocked with 5% skim milk at 37° C. for 2 h. After washing 3 times with 1×PBST, the anti-B7-H3 antibody of the present disclosure was used as the primary antibody and added to the ELISA plates in 5-fold gradient dilution starting from 2 μg/mL with a total of 8 concentrations: 2,000 ng/mL, 400 ng/mL, 80 ng/mL, 16 ng/mL, 3.2 ng/mL, 0.64 ng/mL, 0.128 ng/mL and 0.0256 ng/mL respectively. The plates were incubated at 37° C. for 2 h with hBRCA84D as the positive control antibody. After washing 5 times with 1×PBST, Anti-Human IgG HRP (Jackson, 109-035-003, 1:5000) was used as the secondary antibody and incubated at 37° C. for 1 h. After washing 5 times with 1×PBST, color developing solution TMB was added to the plate, and microplate reader (Thermo, Multiskan FC) was used to read OD450 value after termination of the reaction. EC₅₀ was generated by GraphPad.

[6] = target: T3, human 2Ig-B7-H3-His protein (human, UniProt Q5ZPR3 29-463); experiment: ELISA, plate coated with human 2Ig-B7-H3-His, detection with anti-human IgG HRP, OD450
T3 sequence: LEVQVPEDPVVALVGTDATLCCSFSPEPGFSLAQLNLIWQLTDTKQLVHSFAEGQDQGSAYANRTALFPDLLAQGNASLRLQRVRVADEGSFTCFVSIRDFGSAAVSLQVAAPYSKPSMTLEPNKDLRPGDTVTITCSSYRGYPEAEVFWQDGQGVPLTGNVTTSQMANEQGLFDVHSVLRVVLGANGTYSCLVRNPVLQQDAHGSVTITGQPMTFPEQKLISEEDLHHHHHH
Protocol: as §2

[7] = target: T4, Cynomolgus B7-H3-His (Sino Biological, Cat. No. 90806-C08H) (cynomolgus monkey); experiment: ELISA, plate coated with cynomolgus B7-H3-His, detection with anti-human IgG HRP, OD450
T4 construct: Bought reagent; also called cynomolgus monkey B7-H3; monkey B7-H3
Protocol: The binding activity of antibodies was analyzed by protein based ELISA. Cynomolgus B7-H3-His (0.5 μg/well, Sino Biological, Cat. No. 90806-C08H) was coated on 96-well ELISA plates. The anti-B7-H3 antibodies of the present disclosure was used as the primary antibody and added to the ELISA plates in 5-fold gradient dilution starting from 2 μg/mL with a total of 8 concentrations: 2,000 ng/mL, 400 ng/mL, 80 ng/mL, 16 ng/mL, 3.2 ng/mL, 0.64 ng/mL, 0.128 ng/mL, and 0.0256 ng/mL respectively. The plates were incubated at 37° C. for 2 h with AB06.12-4P as the positive control antibody. Anti-Human IgG HRP (Jackson, 109-035-003, 1:10,000) was used as the secondary antibody. Color developing solution TMB (3,3′,5,5′-tetramethylbenzidine) was added to the plate, and microplate reader (Thermo, Multiskan FC) was used to read OD450 value after termination of the reaction. EC₅₀ was generated by GraphPad.

EC50 [1]: 0.12 µg/mL | Mean fluorescence intensity (MFI) [1]: 584000 | EC50 [2]: 0.0501 µg/mL | Mean fluorescence intensity (MFI) [2]: 156000 | EC50 [3]: 0.12 µg/mL | Mean fluorescence intensity (MFI) [3]: 584000 | Kd [4]: 0.49 nM | koff [4]: 0.000385 s⁻¹ | kon [4]: 785000 M⁻¹ s⁻¹ | EC50 (read off the curve) [5]: ~0.005 µg/mL | EC50 (read off the curve) [6]: ~0.005 µg/mL | EC50 (read off the curve) [7]: ~0.006 µg/mL
B1: hu51-G34K-12 (antibody, human IgG1, V domains shown)
VH: EVQLVESGGGLVKPGGSLRLSCAASGFTFSSFGMSWVRQAPGKGLEWVATINSGDNYSYSPDSVKGRFTISRDNAKNSLYLQMNSLRAEDTAVYYCARPHIFYYGSPAWFAYWGQGTLVTVSS
VL: DVVMTQSPLSLPVTLGQPASISCRSRQSLVHSNKNTYLHWFQQRPGQSPRLLIYKVSNRFSGVPDRFSGSGSGTDFTLKISRVEAEDVGVYYCSQSTHVPLTFGGGTKVEIK
notes: expressed in HEK293E; also called humanized anti-B7-H3 antibody hu51-G34K-12
